Reference: patent US20180094059A1 (UNIVERSITAT STUTTGART, published 2018)

Assays:
TRAIL-R1-Fc = target: T1, TRAIL-R1-Fc (human, UniProt O00220 24-239); assay: ELISA, coated DR4-Fc (3 µg/ml), anti-Flag-HRP detection
T1 construct: extracellular domain; also called DR4-Fc; not shown: Fc-part

DcR2-Fc = target: T2, DcR2-Fc (human, UniProt Q9UBN6 56-211); assay: ELISA, coated DcR2-Fc (3 µg/ml), anti-Flag-HRP detection
T2 construct: extracellular domain; also called TRAIL-R4-Fc; not shown: Fc-part
T2 sequence (looked up): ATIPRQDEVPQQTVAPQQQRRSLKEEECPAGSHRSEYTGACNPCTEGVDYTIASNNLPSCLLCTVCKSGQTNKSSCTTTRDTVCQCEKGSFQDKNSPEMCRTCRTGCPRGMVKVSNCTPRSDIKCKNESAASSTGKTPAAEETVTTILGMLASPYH

TRAIL-R2-Fc [1] = target: T3, TRAIL-R2-Fc (human, UniProt O14763 56-210); assay: ELISA, coated DR5-Fc (3 µg/ml), anti-Flag-HRP detection
T3 construct: extracellular domain; also called DR5-Fc; DR5-Fc fusion protein; not shown: Fc-part

[2] = target: T4, EGFR on EGFR-positive tumor cell lines (UniProt P00533 25-1210, limits assumed); assay: cell-based or functional assay
[3] = target: T4, EGFR on EGFR-positive tumor cell lines; assay: flow cytometry, Colo205 cells
EGFR-Fc = target: T5, EGFR-Fc (UniProt P00533 25-645); assay: ELISA, EGFR-Fc
T5 construct: also called purified EGFR-Fc; not shown: Fc part

[4] = target: T4, EGFR on EGFR-positive tumor cell lines; assay: flow cytometry, HCT116 cells
HER3-Fc = target: T6, HER3-Fc (UniProt P21860 20-643); assay: ELISA, HER3-Fc
T6 construct: not shown: Fc part

TRAIL-R2-Fc [5] = target: T3, TRAIL-R2-Fc; assay: ELISA, TRAIL-R2-Fc
Experimental: The new scTRAIL₃-[sequence] fusion proteins were evaluated concerning their ability to bind to their corresponding target antigen and TRAIL-R2 by ELISA as well as by IF flow cytometry using intact Colo 205 cells. Antigen binding was analyzed in ELISA using Fc fusion proteins of EGFR, HER2 and HER3.

B1: Db10-Glyco-scTRAIL3-FAVSGAA (other)
chain: LEASDYKDDDDKGAEVQLVESGGGLVQPGGSLRLSCAASGFSLTNYGVHWVRQAPGKGLEWLGVIWSGGNTDYNTPFTSRFTISRDNSKNTLYLQMNSLRAEDTAVYYCARALTYYDYEFAYWGQGTTVTVSSGGGGSGGGGSDIQLTQSPSFLSASVGDRVTITCRASQSIGTNIHWYQQKPGKAPKLLIKYASESISGVPSRFSGSGSGTEFTLTISSLQPEDFATYYCQQNNNWPTTFGAGTKLEIKRAAAGNGTSNGTSEFGGAAAHITGTRGRSNTLSSPNSKNEKALGRKINSWESSRSGHSFLSNLHLRNGELVIHEKGFYYIYSQTYFRFQEEIKENTKNDKQMVQYIYKYTSYPDPILLMKSARNSCWSKDAEYGLYSIYQGGIFELKENDRIFVSVTNEHLIDMDHEASFFGAFAVSGAAAHITGTRGRSNTLSSPNSKNEKALGRKINSWESSRSGHSFLSNLHLRNGELVIHEKGFYYIYSQTYFRFQEEIKENTKNDKQMVQYIYKYTSYPDPILLMKSARNSCWSKDAEYGLYSIYQGGIFELKENDRIFVSVTNEHLIDMDHEASFFGAFAVSGAAAHITGTRGRSNTLSSPNSKNEKALGRKINSWESSRSGHSFLSNLHLRNGELVIHEKGFYYIYSQTYFRFQEEIKENTKNDKQMVQYIYKYTSYPDPILLMKSARNSCWSKDAEYGLYSIYQGGIFELKENDRIFVSVTNEHLIDMDHEASFFGAFAVS
modifications: glycosylated connecting peptide
notes: also called Db10hu225-Glyco-scTRAIL3-FAVSGAA; Db10-glyco-scTRAIL3-FAVSGGA
binding result (TRAIL-R1-Fc): binds
binding result (DcR2-Fc): binds
binding result (TRAIL-R2-Fc [1]): binds
EC50 of cell death induction, Colo205, with Bortezomib [2]: 0.013 nM
EC50 of cell death induction, Colo205, with Bortezomib + Cetuximab [2]: 0.066 nM
EC50 of cell death induction, HCT116, with Bortezomib [2]: 0.039 nM
EC50 of cell death induction, HCT116, with Bortezomib + Cetuximab [2]: 0.298 nM
EC50 of cell death induction, HT1080, with Bortezomib [2]: 0.0007 nM
EC50 of cell death induction, HT1080, with Bortezomib + Cetuximab [2]: 0.008 nM

B2: anti-EGFR IgG LC-scTRAIL3-FAVSGAA (other)
heavy: ASDYKDDDDKGAEVQLVESGGGLVQPGGSLRLSCAASGFSLTNYGVHWVRQAPGKGLEWLGVIWSGGNTDYNTPFTSRFTISRDNSKNTLYLQMNSLRAEDTAVYYCARALTYYDYEFAYWGQGTTVTVSSASTKGPSVFPLAPSSKSTSGGTAALGCLVKDYFPEPVTVSWNSGALTSGVHTFPAVLQSSGLYSLSSVVTVPSSSLGTQTYICNVNHKPSNTKVDKKVEPKSCDKTHTCPPCPAPPVAGPSVFLFPPKPKDTLMISRTPEVTCVVVDVSHEDPEVKFNWYVDGVEVHNAKTKPREEQYNSTYRVVSVLTVLHQDWLNGKEYKCKVSNKGLPSSIEKTISKAKGQPREPQVYTLPPSRDELTKNQVSLTCLVKGFYPSDIAVEWESNGQPENNYKTTPPVLDSDGSFFLYSKLTVDKSRWQQGNVFSCSVMHEALHNHYTQKSLSLSPGK
light: DIQLTQSPSFLSASVGDRVTITCRASQSIGTNIHWYQQKPGKAPKLLIKYASESISGVPSRFSGSGSGTEFTLTISSLQPEDFATYYCQQNNNWPTTFGAGTKLEIKRTVAAPSVFIFPPSDEQLKSGTASVVCLLNNFYPREAKVQWKVDNALQSGNSQESVTEQDSKDSTYSLSSTLTLSKADYEKHKVYACEVTHQGLSSPVTKSFNRGECAAGNGTSNGTSEFGGAAAHITGTRGRSNTLSSPNSKNEKALGRKINSWESSRSGHSFLSNLHLRNGELVIHEKGFYYIYSQTYFRFQEEIKENTKNDKQMVQYIYKYTSYPDPILLMKSARNSCWSKDAEYGLYSIYQGGIFELKENDRIFVSVTNEHLIDMDHEASFFGAFAVSGAAAHITGTRGRSNTLSSPNSKNEKALGRKINSWESSRSGHSFLSNLHLRNGELVIHEKGFYYIYSQTYFRFQEEIKENTKNDKQMVQYIYKYTSYPDPILLMKSARNSCWSKDAEYGLYSIYQGGIFELKENDRIFVSVTNEHLIDMDHEASFFGAFAVSGAAAHITGTRGRSNTLSSPNSKNEKALGRKINSWESSRSGHSFLSNLHLRNGELVIHEKGFYYIYSQTYFRFQEEIKENTKNDKQMVQYIYKYTSYPDPILLMKSARNSCWSKDAEYGLYSIYQGGIFELKENDRIFVSVTNEHLIDMDHEASFFGAFAVS
notes: scTRAIL3-FAVSGAA at the C-terminus of the kappa light chain through a 15 aa peptide with two N-glycosylation sites; also called IgG-light chain (LC)-scTRAIL3
EC50 [3]: 0.148 nM
EC50 (EGFR-Fc): 0.46 nM
EC50 [4]: 0.181 nM

B3: anti-EGFR IgG HC-scTRAIL3-FAVSGAA (other)
heavy: ASDYKDDDDKGAEVQLVESGGGLVQPGGSLRLSCAASGFSLTNYGVHWVRQAPGKGLEWLGVIWSGGNTDYNTPFTSRFTISRDNSKNTLYLQMNSLRAEDTAVYYCARALTYYDYEFAYWGQGTTVTVSSASTKGPSVFPLAPSSKSTSGGTAALGCLVKDYFPEPVTVSWNSGALTSGVHTFPAVLQSSGLYSLSSVVTVPSSSLGTQTYICNVNHKPSNTKVDKKVEPKSCDKTHTCPPCPAPPVAGPSVFLFPPKPKDTLMISRTPEVTCVVVDVSHEDPEVKFNWYVDGVEVHNAKTKPREEQYNSTYRVVSVLTVLHQDWLNGKEYKCKVSNKGLPSSIEKTISKAKGQPREPQVYTLPPSRDELTKNQVSLTCLVKGFYPSDIAVEWESNGQPENNYKTTPPVLDSDGSFFLYSKLTVDKSRWQQGNVFSCSVMHEALHNHYTQKSLSLSPGKAAGNGTSNGTSEFGGAAAHITGTRGRSNTLSSPNSKNEKALGRKINSWESSRSGHSFLSNLHLRNGELVIHEKGFYYIYSQTYFRFQEEIKENTKNDKQMVQYIYKYTSYPDPILLMKSARNSCWSKDAEYGLYSIYQGGIFELKENDRIFVSVTNEHLIDMDHEASFFGAFAVSGAAAHITGTRGRSNTLSSPNSKNEKALGRKINSWESSRSGHSFLSNLHLRNGELVIHEKGFYYIYSQTYFRFQEEIKENTKNDKQMVQYIYKYTSYPDPILLMKSARNSCWSKDAEYGLYSIYQGGIFELKENDRIFVSVTNEHLIDMDHEASFFGAFAVSGAAAHITGTRGRSNTLSSPNSKNEKALGRKINSWESSRSGHSFLSNLHLRNGELVIHEKGFYYIYSQTYFRFQEEIKENTKNDKQMVQYIYKYTSYPDPILLMKSARNSCWSKDAEYGLYSIYQGGIFELKENDRIFVSVTNEHLIDMDHEASFFGAFAVS
light: DIQLTQSPSFLSASVGDRVTITCRASQSIGTNIHWYQQKPGKAPKLLIKYASESISGVPSRFSGSGSGTEFTLTISSLQPEDFATYYCQQNNNWPTTFGAGTKLEIKRTVAAPSVFIFPPSDEQLKSGTASVVCLLNNFYPREAKVQWKVDNALQSGNSQESVTEQDSKDSTYSLSSTLTLSKADYEKHKVYACEVTHQGLSSPVTKSFNRGEC
notes: scTRAIL3-FAVSGAA at the C-terminus of the heavy chain; also called IgG-heavy chain (HC)-scTRAIL3
EC50 [3]: 0.081 nM
EC50 (EGFR-Fc): 0.343 nM
EC50 [4]: 0.118 nM

B4: anti-EGFR IgG LC/HC-scTRAIL3-FAVSGAA (other)
heavy: B3 heavy
light: B2 light
notes: scTRAIL3-FAVSGAA on both light and heavy chains (tetrameric form)
EC50 [3]: 0.146 nM
EC50 (EGFR-Fc): 0.315 nM
EC50 [4]: 0.091 nM

B5: scFv3M6-EHD2-scTRAIL3-FLVGGGPQRVA (other)
chain: EVQLLESGGGLVQPGGSLRLSCAASGFTFSHYVMAWVRQAPGKGLEWVSSISSSGGWTLYADSVKGRFTISRDNSKNTLYLQMNSLRAEDTAVYYCTRGLKMATIFDYWGQGTLVTVSSGGGGSGGGGSGGGGSQSALTQPASVSGSPGQSITISCTGTSSDVGSYNVVSWYQQHPGKAPKLIIYEVSQRPSGVSNRFSGSKSGNTASLTISGLQTEDEADYYCSSYAGSSIFVIFGGGTKVTVLAAAGGSGGDFTPPTVKILQSSCDGGGHFPPTIQLLCLVSGYTPGTINITWLEDGQVMDVDLSTASTTQEGELASTQSELTLSQKHWLSDRTYTCQVTYQGHTFEDSTKKCADSNGGSGGASSGGGPQRVAAHITGTRGRSNTLSSPNSKNEKALGRKINSWESSRSGHSFLSNLHLRNGELVIHEKGFYYIYSQTYFRFQEEIKENTKNDKQMVQYIYKYTSYPDPILLMKSARNSCWSKDAEYGLYSIYQGGIFELKENDRIFVSVTNEHLIDMDHEASFFGAFLVGGGPQRVAAHITGTRGRSNTLSSPNSKNEKALGRKINSWESSRSGHSFLSNLHLRNGELVIHEKGFYYIYSQTYFRFQEEIKENTKNDKQMVQYIYKYTSYPDPILLMKSARNSCWSKDAEYGLYSIYQGGIFELKENDRIFVSVTNEHLIDMDHEASFFGAFLVGGGPQRVAAHITGTRGRSNTLSSPNSKNEKALGRKINSWESSRSGHSFLSNLHLRNGELVIHEKGFYYIYSQTYFRFQEEIKENTKNDKQMVQYIYKYTSYPDPILLMKSARNSCWSKDAEYGLYSIYQGGIFELKENDRIFVSVTNEHLIDMDHEASFFGAFLV
EC50 (HER3-Fc): 11.6 nM
EC50 (TRAIL-R2-Fc [5]): 2.65 nM
